Results reported in US20230035037A1 (published 2023).

Experiments:
[1] = target: … (SEQ ID NO: 1) presented by HLA-A*0201 on peptide-pulsed cells (human); assay: cell-based or functional assay
[2] = target: … (SEQ ID NO: 16) presented by HLA-A*0201 on peptide-pulsed cells (human); assay: cell-based or functional assay
[3] = target: … (SEQ ID NO: 18) presented by HLA-A*0201 on peptide-pulsed cells (human); assay: cell-based or functional assay
[4] = target: … (SEQ ID NO: 2) presented by HLA-A*0201 on cells (human); assay: cell-based or functional assay
[5] = target: T1, LRPAP1 (signal peptide) peptide on HLA-A*02:01 (human); assay: titration of short peptide on HLA-A*0201 positive T2 cells or EBV-JY cells; cytokine secretion by the LRPAP1-specific T cell clone (FIG. 1d, 1e); T cell clone or line
T1 peptide: FLGPWPAAS

[6] = target: T2, LRPAP1 (signal peptide), V-variant: C-terminal serine replaced by valine peptide on HLA-A*02:01 (human); assay: as above
T2 peptide: FLGPWPAAV

[7] = target: T3, LRPAP1 (signal peptide), I-variant at position 9 peptide on HLA-A*02:01 (human); assay: as above
T3 peptide: FLGPWPAAI

[8] = target: T4, LRPAP1 (signal peptide), L-variant at position 9 peptide on HLA-A*02:01 (human); assay: as above
T4 peptide: FLGPWPAAL

B1: TCR of the LRPAP1-specific T cell clone 1A8 (TCR, V domains shown)
Valpha: RKEVEQDPGPFNVPEGATVAFNCTYSNSASQSFFWYRQDCRKEPKLLMSVYSSGNEDGRFTAQLNRASQYISLLIRDSKLSDSATYLCVVMGYGQNFVFGPGTRLSVLP
Vbeta: GAVVSQHPSWVICKSGTSVKIECRSLDFQATTMFWYRQFPKQSLMLMATSNEGSKATYEQGVEKDKFLINHASLTLSTLTVTSAHPEDSSFYICSAMGRQSTDTQYFGPGTRLTVL
EC50 of the T cell response to peptide-pulsed HLA-A*0201 positive cells (functional T cell avidity) [1]: 0.1 µg/mL
T cell activation, V-peptide against S-peptide [1]: 19 fold
EC50 of the T cell response to peptide-pulsed HLA-A*0201 positive cells (functional T cell avidity) [2]: 0.7 µg/mL
EC50 of the T cell response to peptide-pulsed HLA-A*0201 positive cells (functional T cell avidity) [3]: 3.7 µg/mL
EC50 of the T cell response to peptide-pulsed HLA-A*0201 positive cells (functional T cell avidity) [4]: 1.9 µg/mL
EC50 of peptide [5]: 1.9 µg/mL
EC50 of peptide [6]: 0.1 µg/mL
EC50 of peptide [7]: 0.7 µg/mL
EC50 of peptide [8]: 3.7 µg/mL
